Experimental findings from patent publication US20090053243A1 (INSTITUTE FOR ANTIBODIES, published 2009) are described below.

This assay concerns the target T1, IgSF4 (Immunoglobulin superfamily member 4), human, as expressed by human cell lines (human, UniProt Q9BY67 45-442).
T1 construct: also called BL2; ST17
T1 sequence: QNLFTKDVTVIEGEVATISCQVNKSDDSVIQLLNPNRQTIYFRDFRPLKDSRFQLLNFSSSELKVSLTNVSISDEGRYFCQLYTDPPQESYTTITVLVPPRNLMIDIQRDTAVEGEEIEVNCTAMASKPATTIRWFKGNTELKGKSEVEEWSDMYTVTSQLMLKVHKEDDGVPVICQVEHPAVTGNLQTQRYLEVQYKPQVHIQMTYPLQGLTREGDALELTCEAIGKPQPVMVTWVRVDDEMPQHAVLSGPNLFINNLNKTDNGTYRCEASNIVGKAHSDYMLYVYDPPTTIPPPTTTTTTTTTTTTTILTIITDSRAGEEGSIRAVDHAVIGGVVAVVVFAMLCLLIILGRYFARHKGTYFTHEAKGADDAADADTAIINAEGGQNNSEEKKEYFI
Put plainly: statement in the ADCC experiment on VMRC-LCD target cells.

Method: As target cells to be used, lung cancer derived cultured cells VMRC-LCD (provided from Japanese Collection of Research Bioresources) was grown in a liquid culture medium 1 (Minimum Essential Medium Alpha Medium: Invitrogen, 10% (v/v) fetal bovine serum: Equitic-Bio, 1% (v/v) Penicillin-Streptomycin Solution: Sigma-Aldrich) on a culture dish having a diameter of 150 mm. The liquid culture medium was removed, cells were washed with 10 ml of PBS twice, and liquid was removed. To this, 5 ml of 4% (w/v) collagenase Type IV (Invitrogen) was added and maintained at 37° C. for 10 minutes, thereby peeling the cells off from the culture dish.
Into a U-bottom 96-well multiplate (Becton Dickinson), 66 μl/well of target cells (2×10⁴ cells) were placed. To this, 66 μl of IgG antibody (3 μg/ml) was added, and then 66 μl of peripheral blood mononuclear leukocyte suspension (7.5×10⁵ cells) was added. The E/T ratio (ratio of the effector cells and target cells) was made to be 20. In order to prompt to associate cells, centrifugation (60×g, 4° C., 5 minutes) was carried out so as to precipitate cells in the bottom. Then, the cells were incubated for 240 minutes in a culture device under conditions of 37° C. and 5% CO₂, and thus the ADCC reaction was induced. Each antibody sample was prepared as a CTM solution. […] Furthermore, in each experiment group, three wells were used.

B1: IgG type antibody 035-029 (antibody, V domains shown)
VH: EVQLVESGGGLVKPGGSLRLSCAASGFTFSSYAMSWVRQAPGKGLEWVSAISGSGGSTYYADSVKGRFTISRDNSKNTLYLQMNSLRAEDTALYYCARDNWYFDLWGRGTLVTVSS
VL: SSELTQDPAVSVALGQTVRITCQGDSLRSYYASWYQQKPGQAPVLVIYGKNNRLSGIPDRFSGSSSGNTASLTITGAQAEDEADYYCNSRDSSGNHVVFGGGTKLTVLG
notes: also called IgG antibody clone 035-029; human IgG type antibody clone recognizing IgSF4
B1: the binding result is reported as “binds”.
